T1: wild-type human Claudin 5 protein (human, UniProt O00501 1-218)
T1 construct: also called hCLDN5; CLDN 5
T1 sequence: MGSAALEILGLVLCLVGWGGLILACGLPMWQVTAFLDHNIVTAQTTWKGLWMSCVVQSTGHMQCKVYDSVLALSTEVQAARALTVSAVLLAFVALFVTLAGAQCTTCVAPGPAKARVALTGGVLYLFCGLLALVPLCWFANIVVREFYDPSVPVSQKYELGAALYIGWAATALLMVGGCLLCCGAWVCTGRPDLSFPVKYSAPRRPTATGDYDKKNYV


These binders were tested against T1, wild-type human Claudin 5 protein (assay: FACS screening of hybridoma supernatants on human Claudin 5-expressing HT-1080 cells against mock cells; positive clones).
Procedure: The cells were washed three times with 0.2% BSA-TBS, and then mixed with 100 μL of a secondary antibody solution (FITC conjugated goat anti-mouse IgG+IgM in 1% BSA-PBS (1:400)), followed by a reaction at 4° C. for 1 hour. The cells were washed with 0.2% BSA-TBS, and FACS analysis (FACS caliber, BD Bioscience) was performed.

Binder	binding result
antibody 1B3 (antibody, IgG2, V domains shown, Tested as hybridoma culture supernatant in the screening; also called antibody E) VH: QIQLVQSGPELKKPGETVKISCKASGYSFTAHGMSWVKQAPGKGLKWMGWINTYSGVPAYADDFKGRFAFSLETSPSTAFLQINNLKNEDTATYFCTRSHYDRKFGYWGQGTLVTVSA VL: QAVVTQESALTTSPGETVTLTCRSSTGAVTTSNYANWVQEKPDHLFTGLIGDTNNRAPGVPARFSGSLIGDKAALTITGAQTGDEAIYFCALWYSNLWVFGGGTKLTVRG	binds
antibody 1D1 (antibody, IgG2a, V domains shown, Tested as hybridoma culture supernatant in the screening; also called antibody F) VH: QVQLQQPGAEHVKPGASVKLSCKASGYTFTTYWIHWVKQRPGRGLEWIGRIAPNSGGTKYNENFKSKATLTVDRPSTTAYMQLSGLTSEDSAVYYCARWDFTFGTNLDYWGQGTTLTVSS VL: DIVMTQSQKFMSTSVGDRVSITCKASQNVRTAVAWYQQKPGQSPKALIFLASNRHTGVPDRFTGSGSGTDFTLTITNVQSEDLADYFCLQHWTYPYTFGGGTKLEIKR	binds
antibody 3A5 (antibody, IgG2a, V domains shown, Tested as hybridoma culture supernatant in the screening; also called antibody G) VH: QVQLQQPGTELVKPGASVKLSCKASGYTFTSYWMHWVKQRPGQGLEWIGNINPSNGGTNYNEKFKSKATLTVDKSSTTAYMLLSSLTSEDSAVYYCARYYGSSFLYWYFDVWGTGTTVTVSS VL: DIVMTQSHKFMSSSVGDRVSITCKASQDVGTAVAWYQQKPGQSPKILIYWASTRHTGVPDRFTGSGSGTDFTLTISNVQSEDLADYFCQQYSSYPTFGSGTKLEIKR	binds
